Measured values as given in patent US20190101529, “TAU PROTEIN-BINDING DNA APTAMERS WITH CAPTURE/DETECTION AND THERAPEUTIC UTILITIES IN TAUOPATHY-RELATED NEURODEGENERATIVE DISORDERS” (UNIVERSITY OF FLORIDA RESEARCH FOUNDATION, INC., published 2019).
Positions count from the first letter of the chain named. Where no end group is shown, it is not given here. [ ]: non-standard residue; d: D form. pT = C[C@@H](OP(=O)(O)O)[C@H](N)C(=O)O

Key:
Tau T231 peptide [1] = target: T1, Tau T231 peptide (UniProt P10636); test: flow; no significant background binding; PBS + 5 mM MgCl2, 4 C; details: protein: synthetic; tags: synthetic (GenScript), N-terminal acetyl, C-terminal Ahx-Ahx-His6; label: fluorophore
T1 chain: KVAVVRTPPKSPS
Description: (§1) For each sample, 20 μL of peptide-beads or bare beads (˜1.4×105 beads) was washed against 500 μL of PBS three times. After removing the supernatant, beads were suspended in 80 μL of buffer containing either DNA pool or aptamer candidate to be tested at 250 nM for 30 min, but the DNA concentration used was 100 nM instead of 250 nM when examining the saturation of fluorescent signal with the selection pools. Incubations were carried out at 4° C. unless stated otherwise. Afterwards, beads were washed against 500 μL of PBS with additional 5 mM Mg2+ twice and then were suspended in 80 μL of buffer for flow cytometric analysis.
The supernatant collected after the fourth negative incubation then was carried to the 8th round of positive incubation, in which the concentration of the peptide solutions used to modify Ni-NTA beads was doubled to 800 μg/mL. Moving forward, the following selection rounds were conducted with sandwiched negative incubations to eliminate the possibility of enriching any oligonucleotides recognizing the surface of the beads and with positive beads prepared with more concentrated peptide solutions (800 μg/mL) to raise the recovery rate of the desired candidates. The SELEX progress was then evaluated again with amplicons obtained in Round #10 and Round #11. […] Four oligonucleotides were used as reference sequences.

[2] = target: Tau441 (microtubule-associated protein tau, 2N4R) (UniProt P10636-8 P10636-8:1-441); test: BLI; PBS + 5 mM Mg2+, 30 C; details: tags: His-tag (SignalChem) for BLI, rPeptide Tau441 for aggregation assay
Description: (§2) The binding affinities and binding kinetics of the selected aptamers were determined on an Octet RED384 instrument (Pall Fortebio). All measurements were performed on 384-well plates that were agitated at 1000 rpm at 30° C. The his-tag peptides were immobilized at a concentration of 5 μg/mL on Ni-NTA sensors for 10 minutes, followed by rinsing the sensors in PBS for 10 min. Then the sensors were brought into fresh association buffer (PBS with 5 mM Mg2+) to establish a baseline for another 10 min. For kinetic analysis, the peptide-immobilized sensors were transferred to the wells containing aptamer dilutions (1 μM, 1.5 μM, 2 μM, 3 μM, 4 μM) for the association step (10 min), and then moved to the wells with fresh buffer for the dissociation step (10 min). A reference sensor was used without the treatment with aptamer solution but others steps remained the same. […] Association rate constants (kon), dissociation rate constants (koff), and equilibrium dissociation constants (Kd) for each aptamer binding to its target peptide were calculated using the FORTEBIO® data analysis software 10.0.

Tau T231 peptide [3] = target: T1, Tau T231 peptide; test: flow; binding lost; 4 C; details: protein: synthetic; tags: synthetic peptide (GenScript), N-terminal acetyl, C-terminal (Ahx)2-His6
Description: as §1, with “BD ACCURI™ C6 flow cytometry (BD Immunocytometry Systems) was used to monitor the enrichment of aptamer candidates during the selection process and to evaluate the binding specificity of the selected aptamer candidates. For” for “For”

alpha casein = target: T2, alpha casein (UniProt P02662 P02662:16-214); test: EMSA; 200 nM aptamer, 0.05 mg/mL protein, 4 C; details: label: 5'-FAM (flow)
T2 sequence: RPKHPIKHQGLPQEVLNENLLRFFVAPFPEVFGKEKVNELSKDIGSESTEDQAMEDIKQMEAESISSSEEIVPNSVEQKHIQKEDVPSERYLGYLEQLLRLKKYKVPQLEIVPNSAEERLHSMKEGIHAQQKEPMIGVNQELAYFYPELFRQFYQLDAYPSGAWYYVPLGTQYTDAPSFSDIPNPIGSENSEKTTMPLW

BSA = BSA (UniProt P02769 P02769:25-607); test: EMSA; 200 nM aptamer, 0.05 mg/mL protein, 4 C; details: label: 5'-FAM (flow)
UCH-L1 = UCH-L1 (UniProt P09936 P09936:1-223); test: EMSA; 200 nM aptamer, 0.05 mg/mL protein, 4 C; details: label: 5'-FAM (flow)
beta casein = target: T3, beta casein (UniProt P02666 P02666:16-224); test: EMSA; 200 nM aptamer, 0.05 mg/mL protein, 4 C; details: label: 5'-FAM (flow)
T3 sequence: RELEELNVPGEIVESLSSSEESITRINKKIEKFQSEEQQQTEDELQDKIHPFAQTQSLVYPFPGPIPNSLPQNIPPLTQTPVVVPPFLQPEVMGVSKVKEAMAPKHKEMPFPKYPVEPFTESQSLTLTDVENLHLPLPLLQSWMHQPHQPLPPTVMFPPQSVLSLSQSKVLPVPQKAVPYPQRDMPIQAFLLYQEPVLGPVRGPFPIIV

Tau S202 peptide = target: T4, Tau S202 peptide; test: flow; binding lost completely; 4 C; details: protein: synthetic; tags: synthetic peptide (GenScript), N-terminal acetyl, C-terminal (Ahx)2-His6
T4 chain: GYSSPGSPGTPGSR
Description: as §1, with “BD ACCURI™ C6 flow cytometry (BD Immunocytometry Systems) was used to monitor the enrichment of aptamer candidates during the selection process and to evaluate the binding specificity of the selected aptamer candidates. For” for “For”

Tau T231 peptide [4] = target: T1, Tau T231 peptide; test: flow; binding lost completely; 4 C; details: protein: synthetic; tags: synthetic peptide (GenScript), N-terminal acetyl, C-terminal (Ahx)2-His6
Description: as §1, with “BD ACCURI™ C6 flow cytometry (BD Immunocytometry Systems) was used to monitor the enrichment of aptamer candidates during the selection process and to evaluate the binding specificity of the selected aptamer candidates. For” for “For”

Tau T231P phosphopeptide = target: T5, Tau T231P phosphopeptide (UniProt P10636); test: flow; binding lost completely; 4 C; details: protein: synthetic
T5 chain: KVAVVR[pT]PPKSPS
Description: as §1, with “BD ACCURI™ C6 flow cytometry (BD Immunocytometry Systems) was used to monitor the enrichment of aptamer candidates during the selection process and to evaluate the binding specificity of the selected aptamer candidates. For” for “For”

Tau T231 peptide [5] = target: T1, Tau T231 peptide; test: BLI; PBS + 5 mM Mg2+, 30 C; details: protein: synthetic; tags: synthetic peptide (GenScript), N-terminal acetyl, C-terminal (Ahx)2-His6
Description: as §2

Chain of BSA (P02769 25-607, one chain of several): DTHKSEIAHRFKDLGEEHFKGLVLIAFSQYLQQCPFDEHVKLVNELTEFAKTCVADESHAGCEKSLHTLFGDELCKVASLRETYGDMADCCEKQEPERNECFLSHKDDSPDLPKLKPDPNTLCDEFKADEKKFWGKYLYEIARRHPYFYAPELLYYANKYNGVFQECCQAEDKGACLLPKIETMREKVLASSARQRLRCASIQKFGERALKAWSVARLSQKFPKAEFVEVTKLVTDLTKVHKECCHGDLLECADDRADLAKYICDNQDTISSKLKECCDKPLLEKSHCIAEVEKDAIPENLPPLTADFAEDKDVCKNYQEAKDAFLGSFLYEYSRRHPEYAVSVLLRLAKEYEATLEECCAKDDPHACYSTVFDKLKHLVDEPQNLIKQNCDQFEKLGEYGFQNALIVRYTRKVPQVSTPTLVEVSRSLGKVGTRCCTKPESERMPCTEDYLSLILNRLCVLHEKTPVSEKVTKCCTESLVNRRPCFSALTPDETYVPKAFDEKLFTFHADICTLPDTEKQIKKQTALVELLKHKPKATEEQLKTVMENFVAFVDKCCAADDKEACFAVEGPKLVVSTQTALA
Chain of Tau441 (microtubule-associated protein tau, 2N4R) (P10636 other isoform, or with tags, fused parts or gaps): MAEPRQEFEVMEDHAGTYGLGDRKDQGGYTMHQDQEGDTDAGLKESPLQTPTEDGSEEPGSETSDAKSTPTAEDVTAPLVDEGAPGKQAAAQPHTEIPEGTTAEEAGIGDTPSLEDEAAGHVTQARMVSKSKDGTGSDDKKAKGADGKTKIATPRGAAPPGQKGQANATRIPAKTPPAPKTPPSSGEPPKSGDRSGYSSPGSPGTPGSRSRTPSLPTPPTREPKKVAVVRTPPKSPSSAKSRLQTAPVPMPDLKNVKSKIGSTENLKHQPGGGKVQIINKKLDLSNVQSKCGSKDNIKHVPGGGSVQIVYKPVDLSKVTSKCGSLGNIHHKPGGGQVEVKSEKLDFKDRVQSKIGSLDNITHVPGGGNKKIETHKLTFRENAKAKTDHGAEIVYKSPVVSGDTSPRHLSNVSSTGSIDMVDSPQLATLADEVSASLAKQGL
Chain of UCH-L1 (P09936 whole entry, one chain of several): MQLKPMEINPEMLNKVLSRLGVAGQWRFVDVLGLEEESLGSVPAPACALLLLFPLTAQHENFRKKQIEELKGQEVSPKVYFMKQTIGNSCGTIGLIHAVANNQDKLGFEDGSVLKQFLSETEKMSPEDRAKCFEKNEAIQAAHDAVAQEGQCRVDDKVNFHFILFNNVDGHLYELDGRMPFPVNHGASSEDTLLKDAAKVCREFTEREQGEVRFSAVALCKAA

AACGAGAAGCGCGATCACAT (ssDNA) [Ref2]: no binding (Tau T231 peptide [1]).

B1: IT1 (ssDNA)
DNA: CAGCACCGTCAACTGAATTGCTTGGTCCTCCCGGGGTTCTGGAAAAGCGTGATGCGATGGAGATGT
B1 gave a Kd ([2]; label: 5'-FAM (flow)) of 9 nM.

Work on CTGAATAAGGACTGCTTAGGATTGCGATGATTCAG (ssDNA) [IT2a] yielded a Kd ([2]; hairpin) of 19.5 nM.

TTGGTCCTCCCGGGGTTCTGGAAAA (ssDNA) [IT1d]: no binding (Tau T231 peptide [3]).

B2: IT6 (ssDNA)
DNA: CAGCACCGTCAACTGAATGTTGTCGTCAGAGGTTATAACCTGAACTCGGTGATGCGATGGAGATGT
For B2, the Kd ([2]; label: 5'-FAM (flow), branched hairpin (predicted)) was 26.8 nM.

B3: IT5 (ssDNA)
DNA: CAGCACCGTCAACTGAATGGCGGGGGGTCAGGTCGGGGTAAGGTGAGCGTGATGCGATGGAGATGT
B3: no binding (alpha casein); no binding (BSA); no binding (UCH-L1). The binding result (beta casein) was “no binding” and the Kd ([2]; label: 5'-FAM (flow)) was 7.6 nM.

B4: IT9 (ssDNA)
DNA: B3 DNA with G19T
B4: no binding (alpha casein); no binding (BSA); no binding (UCH-L1). The binding result (beta casein) was “no binding” and the Kd ([2]; label: 5'-FAM (flow)) was 22.8 nM.

B5: IT3 (ssDNA)
DNA: CAGCACCGTCAACTGAATGGGGAGAGTGGTGGGGCGGGGGCCGGATCCGTGATGCGATGGAGATGT
B5: no binding (alpha casein); no binding (BSA); no binding (UCH-L1). For the same binder, the binding result (beta casein) was “no binding” and the Kd ([2]; label: 5'-FAM (flow)) was 17 nM.

GCGGAGCGTGGCAGG (ssDNA) [Ref1]: no binding (Tau T231 peptide [1]).

CTTCTGCCCGCCTCCTTCC (ssDNA) [Ref3]: no binding (Tau T231 peptide [1]).

Work on CACCGTCAACTGAATGTTGTCGTCAGAGGTTATAACCTGAACTCGGTG (ssDNA) [IT6a] yielded a Kd [2] of 28.2 nM.

AAGGACTGCTTAGGATTGC (ssDNA) [IT2b]: no binding (Tau S202 peptide); no binding (Tau T231 peptide [4]); no binding (Tau T231P phosphopeptide).

B6: IT4 (ssDNA)
DNA: CAGCACCGTCAACTGAATGGGTTGGCCGGGCAGCGGGGGGTAGGCTTGGTGATGCGATGGAGATGT
B6: no binding (alpha casein); no binding (BSA); no binding (UCH-L1). The binding result (beta casein) was “no binding” and the Kd ([2]; label: 5'-FAM (flow)) was 68 nM.

B7: IT2 (ssDNA)
DNA: CAGCACCGTCAACTGAATAAGGACTGCTTAGGATTGCGATGATTCAGGGTGATGCGATGGAGATGT
B7 was tested, and the Kd ([2]; label: 5'-FAM (flow)) was 5.5 nM.

In the case of GCTTGGTCCTCCCGGGGTTCTGGAAAAGC (ssDNA) [IT1c], the Kd [2] is reported as 13 nM and the Kd (Tau T231 peptide [5]) is reported as 46 nM.
